Laboratory results published in publication PMC6007875 (Nature, 2018).

T1: shed extracellular domain of αKlotho (αKlotho^ecto) (human, UniProt Q9UEF7 34-981)
T1 sequence (looked up): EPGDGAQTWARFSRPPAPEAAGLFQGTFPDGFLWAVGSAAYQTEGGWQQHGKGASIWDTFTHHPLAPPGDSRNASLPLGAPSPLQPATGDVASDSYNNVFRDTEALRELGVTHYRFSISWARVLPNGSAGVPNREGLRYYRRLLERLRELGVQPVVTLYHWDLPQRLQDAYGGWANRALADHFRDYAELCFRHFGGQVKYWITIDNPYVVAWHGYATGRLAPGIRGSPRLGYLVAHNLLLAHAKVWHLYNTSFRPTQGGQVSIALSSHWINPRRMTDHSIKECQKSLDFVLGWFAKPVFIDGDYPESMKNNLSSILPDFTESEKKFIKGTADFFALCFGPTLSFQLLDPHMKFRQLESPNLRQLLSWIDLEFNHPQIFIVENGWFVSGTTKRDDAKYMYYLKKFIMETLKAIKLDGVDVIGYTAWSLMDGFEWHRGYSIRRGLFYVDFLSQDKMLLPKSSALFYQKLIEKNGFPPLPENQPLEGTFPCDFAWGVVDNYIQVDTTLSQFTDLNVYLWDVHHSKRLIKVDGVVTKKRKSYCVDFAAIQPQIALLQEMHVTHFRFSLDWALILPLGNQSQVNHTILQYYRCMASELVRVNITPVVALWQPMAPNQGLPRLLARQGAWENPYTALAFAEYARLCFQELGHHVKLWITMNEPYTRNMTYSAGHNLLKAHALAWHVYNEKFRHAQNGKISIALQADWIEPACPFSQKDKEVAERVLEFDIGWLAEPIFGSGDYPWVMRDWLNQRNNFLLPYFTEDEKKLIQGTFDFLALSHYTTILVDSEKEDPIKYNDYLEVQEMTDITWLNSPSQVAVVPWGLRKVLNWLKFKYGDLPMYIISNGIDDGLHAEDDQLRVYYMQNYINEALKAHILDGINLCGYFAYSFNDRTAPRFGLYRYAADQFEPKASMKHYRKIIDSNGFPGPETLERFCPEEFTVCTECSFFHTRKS

B1: FGFR1c ligand-binding domain (FGFR1c^ecto) (domain or fragment, human)
chain: DNTKPNRMPVAPYWTSPEKMEKKLHAVPAAKTVKFKCPSSGTPNPTLRWLKNGKEFKPDHRIGGYKVRYATWSIIMDSVVPSDKGNYTCIVENEYGSINHTYQLDVVERSPHRPILQAGLPANKTVALGSNVEFMCKVYSDPQPHIQWLKHIEVNGSKIGPDNLPYVQILKTAGVNTTDKEMEVLHLRNVSFEDAGEYTCLAGNSIGLSHHSAWLTVLEALEER
B2: FGF23^ΔSRBS (M149A/N150A/P151A) (ligand, human, UniProt Q9GZV9 25-251, looked up)
chain: YPNASPLLGSSWGGLIHLYTATARNSYHLQIHKNGHVDGAPHQTIYSALMIRSEDAGFVVITGVMSRRYLCMDFRGNIFGSHYFDPENCRFQHQTLENGYDVYHSPQYHFLVSLGRAKRAFLPGAAAPPYSQFLSRRNEIPLIHFNTPIPRRHTRSAEDDSERDPLNVLKPRARMTPAPASCSQELPSAEDNSPMASDPLGVVRGGRVNTHAGGTGPEGCRPFAKFI
B3: FGF23^ΔHBS (R140A/R143A) (ligand, human, UniProt Q9GZV9 25-251, looked up)
chain: YPNASPLLGSSWGGLIHLYTATARNSYHLQIHKNGHVDGAPHQTIYSALMIRSEDAGFVVITGVMSRRYLCMDFRGNIFGSHYFDPENCRFQHQTLENGYDVYHSPQYHFLVSLGAAKAAFLPGMNPPPYSQFLSRRNEIPLIHFNTPIPRRHTRSAEDDSERDPLNVLKPRARMTPAPASCSQELPSAEDNSPMASDPLGVVRGGRVNTHAGGTGPEGCRPFAKFI

Columns and labels:
FGFR1c (Homo sapiens) = FGFR1c (Homo sapiens) (UniProt P11362); conditions: cited from earlier work
[1] = molecular target: T1, shed extracellular domain of αKlotho …; experiment: SEC-MALS
FGF23^ΔHBS (R140A/R143A) = molecular target: B3; experiment: SEC-MALS
[2] = molecular target: B2; experiment: SEC-MALS
[3] = molecular target: B1; experiment: SEC-MALS

Sequence of FGFR1c (Homo sapiens) (P11362 22-376): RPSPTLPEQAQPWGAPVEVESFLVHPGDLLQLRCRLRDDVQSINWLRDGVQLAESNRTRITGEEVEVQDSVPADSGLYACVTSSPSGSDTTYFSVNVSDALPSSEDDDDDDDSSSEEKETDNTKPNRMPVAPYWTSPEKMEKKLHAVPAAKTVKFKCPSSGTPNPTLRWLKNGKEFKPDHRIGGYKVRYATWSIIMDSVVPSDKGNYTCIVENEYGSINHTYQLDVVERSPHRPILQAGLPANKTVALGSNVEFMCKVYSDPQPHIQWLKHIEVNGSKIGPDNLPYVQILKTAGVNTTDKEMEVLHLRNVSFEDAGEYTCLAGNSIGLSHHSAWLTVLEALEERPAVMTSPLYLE

Row | binding result [1] | Molecule | further results
1 | – | αKlotho (from UniProt Q9UEF7) | Kd (FGFR1c (Homo sapiens)): 72 nM
2 | binds | FGFR1c^ΔHBS (K160Q/K163Q), ecto (domain or fragment, human) DNTKPNRMPVAPYWTSPEQMEQKLHAVPAAKTVKFKCPSSGTPNPTLRWLKNGKEFKPDHRIGGYKVRYATWSIIMDSVVPSDKGNYTCIVENEYGSINHTYQLDVVERSPHRPILQAGLPANKTVALGSNVEFMCKVYSDPQPHIQWLKHIEVNGSKIGPDNLPYVQILKTAGVNTTDKEMEVLHLRNVSFEDAGEYTCLAGNSIGLSHHSAWLTVLEALEER | –
3 | – | B1 | stoichiometry N [1]: 1; binding result (FGF23^ΔHBS (R140A/R143A)): binds; binding result [2]: binds
4 | binds | FGFR1c^ΔHBS’ (K207Q/R209Q), ecto (domain or fragment, human) DNTKPNRMPVAPYWTSPEKMEKKLHAVPAAKTVKFKCPSSGTPNPTLRWLKNGKEFKPDHRIGGYQVQYATWSIIMDSVVPSDKGNYTCIVENEYGSINHTYQLDVVERSPHRPILQAGLPANKTVALGSNVEFMCKVYSDPQPHIQWLKHIEVNGSKIGPDNLPYVQILKTAGVNTTDKEMEVLHLRNVSFEDAGEYTCLAGNSIGLSHHSAWLTVLEALEER | –
5 | binds | FGFR1c^ΔSLBS’ (V221D), ecto (domain or fragment, human) DNTKPNRMPVAPYWTSPEKMEKKLHAVPAAKTVKFKCPSSGTPNPTLRWLKNGKEFKPDHRIGGYKVRYATWSIIMDSVDPSDKGNYTCIVENEYGSINHTYQLDVVERSPHRPILQAGLPANKTVALGSNVEFMCKVYSDPQPHIQWLKHIEVNGSKIGPDNLPYVQILKTAGVNTTDKEMEVLHLRNVSFEDAGEYTCLAGNSIGLSHHSAWLTVLEALEER | –
6 | binds | FGFR1c^ΔSLBS (I203E), ecto (domain or fragment, human) DNTKPNRMPVAPYWTSPEKMEKKLHAVPAAKTVKFKCPSSGTPNPTLRWLKNGKEFKPDHREGGYKVRYATWSIIMDSVVPSDKGNYTCIVENEYGSINHTYQLDVVERSPHRPILQAGLPANKTVALGSNVEFMCKVYSDPQPHIQWLKHIEVNGSKIGPDNLPYVQILKTAGVNTTDKEMEVLHLRNVSFEDAGEYTCLAGNSIGLSHHSAWLTVLEALEER | –
7 | binds | FGFR1c^ΔRRBS (A171D), ecto (domain or fragment, human) DNTKPNRMPVAPYWTSPEKMEKKLHAVPADKTVKFKCPSSGTPNPTLRWLKNGKEFKPDHRIGGYKVRYATWSIIMDSVVPSDKGNYTCIVENEYGSINHTYQLDVVERSPHRPILQAGLPANKTVALGSNVEFMCKVYSDPQPHIQWLKHIEVNGSKIGPDNLPYVQILKTAGVNTTDKEMEVLHLRNVSFEDAGEYTCLAGNSIGLSHHSAWLTVLEALEER | –
8 | – | fibroblast growth factor 23 (FGF23) (ligand, human, UniProt Q9GZV9 25-251, looked up) YPNASPLLGSSWGGLIHLYTATARNSYHLQIHKNGHVDGAPHQTIYSALMIRSEDAGFVVITGVMSRRYLCMDFRGNIFGSHYFDPENCRFQHQTLENGYDVYHSPQYHFLVSLGRAKRAFLPGMNPPPYSQFLSRRNEIPLIHFNTPIPRRHTRSAEDDSERDPLNVLKPRARMTPAPASCSQELPSAEDNSPMASDPLGVVRGGRVNTHAGGTGPEGCRPFAKFI | stoichiometry N [3]: 1; stoichiometry N [1]: 1
9 | binds | B2 | –
10 | binds | B3 | –
